The text below walks through data of patent US20250026792A1, “SELF-ASSEMBLING PEPTIDES WITH HYALURONIC ACID BINDING DOMAINS AND METHODS OF USE THEREOF” (Northwestern University, priority 2022, published 2025).

In assay [1] the target is T1, collagen type III (human) (human, UniProt P02461 154-1221).
T1 construct: III (human)'; Coated and dried on plates at 10 ug/cm2; also called collagen III
T1 sequence (looked up): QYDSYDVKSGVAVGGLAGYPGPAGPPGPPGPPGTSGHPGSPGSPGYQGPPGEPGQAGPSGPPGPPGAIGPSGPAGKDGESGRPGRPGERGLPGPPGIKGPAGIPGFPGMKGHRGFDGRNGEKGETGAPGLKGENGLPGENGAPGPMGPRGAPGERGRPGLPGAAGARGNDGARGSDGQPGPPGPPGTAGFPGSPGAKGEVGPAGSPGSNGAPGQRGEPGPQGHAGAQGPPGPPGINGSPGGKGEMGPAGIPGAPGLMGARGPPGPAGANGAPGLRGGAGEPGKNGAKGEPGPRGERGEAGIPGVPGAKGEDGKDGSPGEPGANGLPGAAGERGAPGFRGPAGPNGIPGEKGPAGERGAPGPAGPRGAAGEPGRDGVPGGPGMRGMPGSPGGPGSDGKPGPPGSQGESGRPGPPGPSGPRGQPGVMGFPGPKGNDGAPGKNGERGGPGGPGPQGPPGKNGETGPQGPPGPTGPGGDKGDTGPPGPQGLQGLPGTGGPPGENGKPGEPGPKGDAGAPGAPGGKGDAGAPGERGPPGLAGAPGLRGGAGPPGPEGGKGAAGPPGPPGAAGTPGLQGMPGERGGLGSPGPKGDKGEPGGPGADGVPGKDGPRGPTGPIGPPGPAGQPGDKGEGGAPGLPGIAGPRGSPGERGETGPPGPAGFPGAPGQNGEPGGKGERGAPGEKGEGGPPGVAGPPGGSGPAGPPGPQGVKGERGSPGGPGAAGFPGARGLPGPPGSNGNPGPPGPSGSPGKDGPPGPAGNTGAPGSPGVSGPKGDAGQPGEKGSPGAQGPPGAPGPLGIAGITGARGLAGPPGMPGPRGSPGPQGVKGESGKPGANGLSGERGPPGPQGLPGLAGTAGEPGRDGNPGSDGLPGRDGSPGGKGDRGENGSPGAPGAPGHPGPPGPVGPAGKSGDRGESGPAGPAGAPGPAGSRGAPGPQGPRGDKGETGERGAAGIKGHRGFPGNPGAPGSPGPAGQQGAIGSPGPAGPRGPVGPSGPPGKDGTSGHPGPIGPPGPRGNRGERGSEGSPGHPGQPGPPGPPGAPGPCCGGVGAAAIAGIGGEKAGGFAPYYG
The assay can be described thus: plate assay: biotinylated peptide (5.0 mg/ml) on dried ECM coating, streptavidin-488 fluorescence. How it is done:
(§1) Peptides were incubated 24 hours at 37° C. on collagens I-IV, elastin, hyaluronic acid, and Geltrex. Coatings (10 pig/cm²) were previously dried overnight in milli-Q water. Overall significance was assessed using analysis of variance, with Tukey's multiple comparison post-hoc analysis between ECM groups where n=4.
(§2) N-termini biotinylated peptides were added to coated plates at 0, 1, 2.5, 5 and 10 mg/ml overnight at 37° C. in phosphate buffered saline (PBS), pH 7.4, after which the plates were washed three times with PBS. Fluorescent streptavidin-488 (4 μg/mL) was added to each well and incubated at 37° C. temperature for 24 hours, then thoroughly washed with PBS. The plates were read with a fluorescence microplate reader for fluorescence intensity (Ex 490 nm, Em 525 nm). All data were normalized to the background fluorescence intensity of Streptavidin-488.

The target in assay [2] is T2, elastin (bovine) (bovine, UniProt P04985 27-747, limits assumed).
T2 construct: Coated and dried on plates at 10 ug/cm2
T2 sequence (looked up): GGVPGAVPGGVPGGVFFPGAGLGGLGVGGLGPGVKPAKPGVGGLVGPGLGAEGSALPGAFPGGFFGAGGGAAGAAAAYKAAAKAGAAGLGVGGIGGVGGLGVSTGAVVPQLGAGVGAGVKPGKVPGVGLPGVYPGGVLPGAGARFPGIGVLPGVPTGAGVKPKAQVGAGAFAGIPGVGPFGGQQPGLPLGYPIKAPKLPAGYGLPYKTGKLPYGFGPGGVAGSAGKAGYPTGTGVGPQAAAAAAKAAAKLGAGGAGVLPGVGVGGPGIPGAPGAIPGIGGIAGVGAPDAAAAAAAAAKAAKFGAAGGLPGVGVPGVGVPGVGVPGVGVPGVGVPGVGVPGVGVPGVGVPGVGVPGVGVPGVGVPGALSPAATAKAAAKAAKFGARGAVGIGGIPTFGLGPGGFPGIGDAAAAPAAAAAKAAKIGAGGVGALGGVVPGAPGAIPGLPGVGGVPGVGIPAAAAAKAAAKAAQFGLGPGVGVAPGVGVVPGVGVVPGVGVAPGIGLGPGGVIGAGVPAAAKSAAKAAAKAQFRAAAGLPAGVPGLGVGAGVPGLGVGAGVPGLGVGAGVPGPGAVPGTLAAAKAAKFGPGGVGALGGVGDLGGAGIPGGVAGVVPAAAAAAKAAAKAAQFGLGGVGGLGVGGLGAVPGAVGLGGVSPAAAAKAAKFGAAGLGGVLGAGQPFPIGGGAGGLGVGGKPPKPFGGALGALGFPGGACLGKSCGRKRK
The description is as above. How it is done:
as §1, §2

The star is where a group is joined. Biotin = O=C1N[C@H]2[C@H](CS[C@H]2CCCCC(=O)*)N1

B1: Peptide 10K (peptide)
peptide: Biotin-TKAKIKHSVKLKAKLRIKLVKRI-OH
SMILES: CC[C@H](C)[C@H](NC(=O)[C@H](CCCNC(=N)N)NC(=O)[C@H](CCCCN)NC(=O)[C@@H](NC(=O)[C@H](CC(C)C)NC(=O)[C@H](CCCCN)NC(=O)[C@@H](NC(=O)[C@H](CCCNC(=N)N)NC(=O)[C@H](CC(C)C)NC(=O)[C@H](CCCCN)NC(=O)[C@H](C)NC(=O)[C@H](CCCCN)NC(=O)[C@H](CC(C)C)NC(=O)[C@H](CCCCN)NC(=O)[C@@H](NC(=O)[C@H](CO)NC(=O)[C@H](Cc1c[nH]cn1)NC(=O)[C@H](CCCCN)NC(=O)[C@@H](NC(=O)[C@H](CCCCN)NC(=O)[C@H](C)NC(=O)[C@H](CCCCN)NC(=O)[C@@H](NC(=O)CCCC[C@@H]1SC[C@@H]2NC(=O)N[C@@H]21)[C@@H](C)O)[C@@H](C)CC)C(C)C)[C@@H](C)CC)C(C)C)C(=O)O
notes: 23-residue designed peptide; biotinylated synthetic peptide
B1: the binding result in assay [1] and in assay [2] was “binds” throughout.
